Key:
[1] = target: BG505 SOSIP.664 Env trimer (UniProt Q2N0S6); assay: ELISA; conditions: parent: 1
[2] = target: BG505 SOSIP.664 Env trimer (HIV-1 (BG505)) (UniProt Q2N0S6); assay: ELISA; direct ELISA: plates coated with soluble BG505 SOSIP trimer (0.2 or 2 ng/μl) in PBS pH 7.4; serially diluted Fab mutants from cell culture supernatant, room temperature 1 hour; goat anti-human lambda HRP; compared with wild-type Fab on the same plate
[3] = target: BG505 SOSIP.664 Env trimer (HIV-1 (BG505)) (UniProt Q2N0S6)

Row | Substance | ratio to parent [1] | fold reduction of binding in ELISA against wild-type Fab [2] [fold] | neutralization on BG505 pseudovirus; fold reduction of potency against wild-type Fab [3] [fold]
1 | Fab NC-Cow1 D:D5A | 1.9 | – | –
2 | Fab NC-Cow1 D:D26A | 0.8 | – | –
3 | Fab NC-Cow1 D:E1A | 1.2 | – | –
4 | Fab NC-Cow1 D:G29A | 64.2 | – | –
5 | Fab NC-Cow1 D:H42A | 1 | – | –
6 | Fab NC-Cow1 D:M24A | 73.8 | – | –
7 | Fab NC-Cow1 D:Q14A | 0.9 | – | –
8 | Fab NC-Cow1 D:Q15A | 1.4 | – | –
9 | Fab NC-Cow1 D:Q34A | 1.3 | – | –
10 | Fab NC-Cow1 D:R43A | 0.8 | – | –
11 | Fab NC-Cow1 D:S19A | 1 | – | –
12 | Fab NC-Cow1 D:T7A | 1.3 | – | –
13 | Fab NC-Cow1 D:Y40A | 1 | – | –
14 | Fab NC-Cow1 H:N100A | 1.6 | – | –
15 | NC-Cow1 Fab ArgD11 alanine mutant | – | > 9 | > 9
16 | NC-Cow1 Fab ArgD27 alanine mutant | – | > 9 | > 9
17 | NC-Cow1 Fab ArgD33 alanine mutant | – | > 9 | > 9
18 | NC-Cow1 Fab ArgD43 alanine mutant | – | – | > 3
19 | NC-Cow1 Fab AsnH100 alanine mutant | – | – | > 3
20 | NC-Cow1 Fab GluD1 alanine mutant | – | – | > 3
21 | NC-Cow1 Fab LysH100b alanine mutant | – | – | > 3
22 | NC-Cow1 Fab TyrD6 alanine mutant | – | > 9 | > 9
23 | NC-Cow1 Fab TyrD31 alanine mutant | – | > 9 | > 9
24 | NC-Cow1 Fab TyrD40 alanine mutant | – | – | > 3

Reference: PMC7253169
